What was measured:
normal tissues = experiment: Immunohistochemistry on micro array of normal tissues; parameters: species or system human; settings: 17 samples
Description: Human tissue microarrays were obtained from US BioMax (Rockville, Md.). The tissue microarrays were deparaffinized in xylene (2 changes, 10 minutes each) then rehydrated by sequential 5 minute washes in 100% ethanol, 95% ethanol, 70% ethanol, 50% ethanol, and PBS buffer. Endogenous peroxidase was blocked by incubation with Peroxidazed 1 solution (Biocare, Concord, Calif.) for 5 minutes at ambient temperature. The sections were blocked with Terminator (Biocare) containing streptavidin then rinsed with PBS buffer. The primary antibody (purified SEAM 3 (vide infra), irrelevant IgG2b control, etc. at concentrations of 1 to 5 μg/ml)) was diluted in Da Vinci Green dilution buffer (Biocare) and incubated either overnight at 4 degrees C. or for 1 hour at ambient temperature. The slides were washed 3 times for 10 minutes each with PBS buffer then incubated with biotin conjugated rabbit anti-mouse IgG secondary antibody (5 μg/ml, Vector Labs, Burlingame, Calif.) for 30 minutes at ambient temperature. After washing 3 times for 10 minutes each with PBS buffer, horse radish peroxidase-streptavidin conjugate (Vector Labs) was added and incubated at ambient temperature for 30 minutes. The slides were washed 3 times for 10 minutes each with PBS buffer and incubated with AEC substrate (Vector Labs) containing hydrogen peroxide for color development. […]

normal melanocytes = experiment: Immunostaining of frozen sections of normal human skin; settings: frozen unfixed sections, 400× magnification
Description: To determine whether there is a difference in expression of SEAM 3-reactive antigen between normal melanocytes and melanoma tumor cells, immuno-staining of thin sections of each type of tissue were performed. In addition to SEAM 3, controls included the secondary antibody alone and R24, which binds to the ganglioside GD3 that is expressed in normal melanocytes and is overexpressed in some melanomas (Dippold et al. Proc Natl Acad Sci USA, 1980. 77(10): 6114-8.; Graus, et al., Brain Res, 1984. 324(1): 190-4; Houghton et al. Proc Natl Acad Sci USA, 1985. 82(4):1242-6; Panneerselvam et al. J Immunol, 1986. 136(7): 2534-41; Real et al. Cancer Res, 1985. 45(9): 4401-11; Vadhan-Raj et al. J Clin Oncol, 1988. 6(10): 1636-48; Welt t al. Clin Immunol Immunopathol, 1987. 45(2): 214-29).
The tissue sections were made from frozen samples of normal skin (HuSkinTb111 in FIG. 39) and two human melanomas (HuMel1151 and HuMel4034). To prevent the possibility of blocking de-N-acetyl antigen or extracting a lipid containing the antigen, the sections were prepared from frozen tissue and were dried onto the slides but not fixed with aldehydes or organic solvents (Chammas et al. Cancer Res, 1999. 59(6): 1337-46). […] Bound antibody was then detected using the DAKO LSAB kit following the manufacturer's directions (Thermo Fisher Scientific, Waltham, Mass.). […]

B1: SEAM 3: murine anti-N-Pr NmB polysaccharide monoclonal antibody (IgG2b), ATCC Deposit No. HB-12170 (antibody, V domains shown)
VH: EVKLQESGGGLVQPGDSLSLSCAASGFTFTPYYMGWVRQPPGKALEWLGYIRNKANGYTTEYSASVKGRFTISRDNSQSILYLQMNALRAEDSATYYCARYARGTVDSWGQGTTLTVS
VL: DIVMTQSPLTLSVTIGQPASISCKSSQSLLHSNGKTYLNWLLQRPGQSPKLLIYLVSKLESGVPDRFSGSGSGTDFTLKISRVEAEDLGLYYCLQIIHFPHTFGAGTKLELKRA
modifications: mouse
normal tissue samples positive for binding (normal tissues): 15 of 17
staining grade in positive normal tissue samples (normal tissues): + to ++
immunostaining of normal human skin (normal melanocytes): binds to an antigen in neural like structures of the dermis but is not present in melanocytes
